Laboratory results published in the supplement of paper PMC9170038.

Legend:
MS2 coat protein [1] = experiment: apparent KD of MS2 coat protein, switch ON state; designed switch direction (-1 OFF switch, 1 ON switch): -1; higher = weaker reporter binding; conditions: FMN input: 0 or 200 uM; Eterna round: R93 (includes R88 designs)
In short: (§1)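 In 100 mM Tris-HCl pH 7.5 with 80 mM KCl and 4 mM MgCl2, and without or with constant ligand, SNAP-549-labelled MS2 coat protein was titrated in twofold steps from 0.7 or 1.5 nM to 3 µM. Per-step times went from 0.8–1.5 h down to 10–20 min. The RNA switches were transcribed on-chip from Illumina sequencing clusters, and apparent KD is the per-design median of normalised cluster binding-curve fits.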

MS2 coat protein [2] = experiment: apparent KD of MS2 coat protein, switch OFF state (with FMN for OFF switches, without FMN for ON switches); designed switch direction (-1 OFF switch, 1 ON switch): -1; higher = weaker reporter binding; conditions: FMN input: 0 or 200 uM; Eterna round: R93 (includes R88 designs)
In short: as §1

Row | Sequence | apparent KD of MS2 coat protein (MS2 coat protein [1]) [nM] | apparent KD of MS2 coat protein (MS2 coat protein [2]) [nM]
1 | AGUUGGCGAGGAUAUACAUGAGGAUCACCCAUGUGAGAGUAAAGAGUGAGAAAGAGAAGUAGAAGGCGCUGACA [Ruby 56] | 81.1 | 180
2 | AUAAAACAUGAGGAUCACCCAUGUGAGGAUAUCUAAAAAGAAAGAAAAAAAAAAAAAAAGAGAAGGCACAAUAA [Amethyst 45] | 27.7 | 31.8
3 | AUAAACAGAGGAUAUACGCAAAUAAAAGAAAAUAAAGAAACACAUGAGGAUCACCCAUGUAGAAGGCUGGAAAA | 21.1 | 16.7
4 | AUAAAGUGAGGAUAUCGAAGACUGUCGAAAAGACAGUCGAACGAGAAGGCACAUGAGGAUCACCCAUGUGAGGG [Mat - Exaclusion 4 - Eli mod - D68] | 79.7 | 122
5 | AUAAUGCGAGGAUAUACAUGAGGAUCACCCAUGUAAAUCAAUAGGAGAGCCACAUUAAGUAGAAGGUGCAUUAA [JR_Exc003_Sub502] | 20.4 | 49.1
6 | AUACGCUGAGGAUAUACCGAAACAACAUCCUCGUGUAUAAUACAUGAGGAUCACCCAUGUAGAAGGCAGUAAAA [Usmaan] | 46.2 | 85.5
7 | AUAGUACAUGAGGAUCACCCAUGUCAGGAUAUUCGAAACGAAAAAAAAAAAAAGUGAAGGAGAAGGGACUAUAA [EX1 Malc#10] | 17.5 | 21.1
8 | AUAGUACAUGAGGAUCACCCAUGUCAGGAUAUUGGAUAUGAAAAAAAAAAAAAGUUAACGAGAAGGGACUAUAA [EX1 Malc#14] | 28.5 | 33.6
9 | AUCAUCCUAGGAUAUACAUGGAUAUACAUUCAUGUGGACCUACAUGAGGAUCACCCAUGUAGAAGGAGGAUGAA [Mat - Same state - Mayanna Mod - D139] | 36.7 | 75.1
10 | AUCAUGUAAGGAUAUUAAAGAAAAGAAAAGAAAGAAAAGAAUAAGAAGGUACAUGAGGAUCACCCAUGUAAGAA [EteRNA is fun!] | 27 | 17
11 | AUCAUGUUAGGAUAUAAAAGAAAAGAAAAGAAAGAAAAGAAUUAGAAGGAACAUGAGGAUCACCCAUGUAAGAA [EteRNA is fun!] | 34.7 | 26.5
12 | AUCGAUCGAGGAUAUACAUGAGGAUCACCCAUGUAAAGCAGAAGAAAGGCCUCAGGAUGUAGAAGGCGACGCAA [JR_Exc003_Sub404] | 17.1 | 41.9
13 | AUCUUGUCAGGAUAUCGUAUAAUAUGGAAAACAUAGAGAUACGAGAAGGGACAUGAGGAUCACCCAUGUAAAAC [May 97] | 41.7 | 40
14 | AUUAAACAUGAGGAUCACCCAUGUGAGGAUAUGCAAAAAAAAUUAUAUUAAAAAAAAAGCAGAAGGCACAUAUA [coft] | 36.3 | 62.3
15 | CAAAACAGAGGAUAUACAUGAGGAUCACCCAUGUAAAAAUGUAGAAGGCUGAAACAAACAAGAAGGAAACAAAA [Meechl Ex3 R2 m3] | 23.7 | 30.1
16 | CAGUACUGAGGAUAUACAUGAGGAUCACCCAUGUAAAAAAGCUACGAAAGUAGCAAAUGUAGAAGGCAGUACUG [Ex3: 804] | 15.5 | 22.8
17 | CCUAUGUCAGGAUAUCAGUAGUAAAAAAAAAAAAUUACUACUGAGAAGGGACAUGAGGAUCACCCAUGUCCCUU [EX4 309: Super Stable 9] | 15.3 | 14.3

Row | Sequence | apparent KD of MS2 coat protein (MS2 coat protein [1]) [nM] | apparent KD of MS2 coat protein (MS2 coat protein [2]) [nM]
18 | CUCAUGUAAGGAUAUAUAUGAAAUGAAGUGAAAGAAAAGAAAUAGAAGGUACAUGAGGAUCACCCAUGUUAGAA [EteRNA is fun!] | 59.2 | 38.7
19 | CUCUAGUCAGGAUAUUCAAGAAAAGAAAAGAAAGAAAAGAAGAAGAAGGGACAUGAGGAUCACCCAUGUAAGAA [EteRNA is fun!] | 46.7 | 46.5
20 | CUCUUGUAAGGAUAUUAAUGAAAUGAAGUGAAAGAAAAGAAUAAGAAGGUACAUGAGGAUCACCCAUGUUAGAA [EteRNA is fun!] | 28.9 | 27
21 | CUCUUGUCAGGAUAUAGAAGAAAAGAAAAGAAAGAAAAGAACUAGAAGGGACAUGAGGAUCACCCAUGUAAGAA [EteRNA is fun!] | 87.5 | 62.9
22 | CUCUUGUCAGGAUAUCUAAGAAAAGAAGAGAAAGAAAAGAAAGAGAAGGGACAUGAGGAUCACCCAUGUAAGAA [EteRNA is fun!] | 59.3 | 32.4
23 | CUCUUGUCAGGAUAUGUAAGAAAAGAAGAGAAAGAAAAGAAACAGAAGGGACAUGAGGAUCACCCAUGUAAGAA [EteRNA is fun!] | 66.4 | 77
24 | CUCUUGUGAGGAUAUCCAUGAAAUGAAGUGAAAGAAAAGAAGGAGAAGGCACAUGAGGAUCACCCAUGUUAGAA [EteRNA is fun!] | 49.6 | 24.3
25 | CUUAUGUAAGGAUAUCAGUAGUAAAAAAAUAAAAUUACUACUGAGAAGGUACAUGAGGAUCACCCAUGUCCGGG [EX4 375: Super Stable 75] | 74.3 | 24.7
26 | GAAAAACAUGAGGAUCACCCAUGUAAGGAUAUGCGAAAAUAAAAUAAAAUAAAAUAAAGCAGAAGGUACAAAAA [Mat - Exclusion 1 - Eli mod - D1] | 29.5 | 40.5
27 | GAAAAACAUGAGGAUCACCCAUGUAAGGAUAUGCUAAAAAACACGGAAAAACGUGAUAGCAGAAGGUACAAAAA [Mat - Exclusion 1 - Eli mod - D89] | 24.1 | 36.5
28 | GAAAAACAUGAGGAUCACCCAUGUAAGGAUAUGCUAAAAAACACGGAAAACGUGAAUAGCAGAAGGUACAAAAA [Mat - Exclusion 1 - Eli mod - D86] | 20.6 | 23.6
29 | GAAAAACAUGAGGAUCACCCAUGUAAGGAUAUGCUAAAAAACACGGAAAACGUGAAUAGCAGAAGGUACAAAAG [Mat - Exclusion 1 - Eli mod - D85] | 25 | 46.8
30 | GAAAAACAUGAGGAUCACCCAUGUAAGGAUAUGCUGAAAAACACGGAAAAAACGUGCAGCAGAAGGUACAAAAG [Mat - Exclusion 1 - Eli mod - D91] | 16.7 | 131
31 | GAAAAACAUGAGGAUCACCCAUGUAAGGAUAUGCUGAAAAACACGGAAAAACGUGACAGCAGAAGGUACAAAAG [Mat - Exclusion 1 - Eli mod - D94] | 18.3 | 40
32 | GAAAACCUAGGAUAUACAUGAGGAUCACCCAUGUCAGUAGACUGGGUAAGGUCUCUCAGUAGAAGGAGGACCCA [Ratilein] | 315 | 318
33 | GAAAACUGAGGAUAUACUUUGGGAAAAGAAAAGAUGAUGUUACAUGAGGAUCACCCAUGUAGAAGGCAGAAAAA [Default title] | 26.4 | 39.4
34 | GAAAAGCAAGGAUAUACAUGAGGAUCACCCAUGUAACCUGAAAGCAUGAUCGGUGACAGUAGAAGGUGCGAAAU [Tixegerice] | 22.3 | 56.9
